Test results taken from article PMC6358605.

Target: BiP NBD (28–413) (Chinese hamster) (UniProt G3I8R9)
Sequence (G3I8R9 28-413): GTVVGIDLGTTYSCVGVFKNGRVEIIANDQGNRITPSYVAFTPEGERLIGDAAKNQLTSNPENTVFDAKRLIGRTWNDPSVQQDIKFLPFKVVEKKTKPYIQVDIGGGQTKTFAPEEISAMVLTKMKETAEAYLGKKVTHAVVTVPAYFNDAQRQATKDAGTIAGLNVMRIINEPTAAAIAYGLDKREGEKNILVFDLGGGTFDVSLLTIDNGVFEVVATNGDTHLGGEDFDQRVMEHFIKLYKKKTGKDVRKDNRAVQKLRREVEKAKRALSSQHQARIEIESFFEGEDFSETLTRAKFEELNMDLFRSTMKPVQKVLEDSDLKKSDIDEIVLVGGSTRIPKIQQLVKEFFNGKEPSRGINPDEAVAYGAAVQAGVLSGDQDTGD

**Q.** Which inhibition of MABA-ADP release, concentration-dependent (Supplementary Fig. 4a, b) does the source give for “Full-length mouse MANF (wild-type) (from UniProt Q9CXI5 22-179) (natural protein)” here?
**A.** Its inhibition of MABA-ADP release, concentration-dependent (Supplementary Fig. 4a, b) is 26.5 µM.
